Results reported in paper PMC9411592 (2022).
Read-outs that look alike come from different tables or passages of the source.

Columns and labels:
[1] = biological target: L-TGF-β1 C4S/R249A (the 'WT' of the SPR assay) (human); assay: SPR
[2] = biological target: L-TGF-β1 C4S/R249A (the 'WT' of the SPR assay) (human); assay: SPR; remark: listed apart in the source

L-TGF-β1 C4S/R249A (the 'WT' of the SPR assay) (human), sequence (chain, as listed by the source R249A): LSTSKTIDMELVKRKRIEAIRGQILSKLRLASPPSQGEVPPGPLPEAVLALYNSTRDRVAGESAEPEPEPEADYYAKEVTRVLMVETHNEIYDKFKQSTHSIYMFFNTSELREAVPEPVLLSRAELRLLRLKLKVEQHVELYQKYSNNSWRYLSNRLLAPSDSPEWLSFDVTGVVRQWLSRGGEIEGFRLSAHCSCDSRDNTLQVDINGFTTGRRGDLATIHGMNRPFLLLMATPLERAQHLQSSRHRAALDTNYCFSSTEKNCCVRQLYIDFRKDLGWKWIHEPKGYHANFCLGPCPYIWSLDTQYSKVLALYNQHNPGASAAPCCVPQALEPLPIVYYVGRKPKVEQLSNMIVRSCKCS

Row | koff [1] [s⁻¹] | koff [2] [s⁻¹] | Binder
1 | 0.00109 | – | integrin αVβ8 headpiece (αV residues 1-594, β8 residues 1-456) (complex) chain 1: FNLDVDSPAEYSGPEGSYFGFAVDFFVPSASSRMFLLVGAPKANTTQPGIVEGGQVLKCDWSSTRRCQPIEFDATGNRDYAKDDPLEFKSHQWFGASVRSKQDKILACAPLYHWRTEMKQEREPVGTCFLQDGTKTVEYAPCRSQDIDADGQGFCQGGFSIDFTKADRVLLGGPGSFYWQGQLISDQVAEIVSKYDPNVYSIKYNNQLATRTAQAIFDDSYLGYSVAVGDFNGDGIDDFVSGVPRAARTLGMVYIYDGKNMSSLYNFTGEQMAAYFGFSVAATDINGDDYADVFIGAPLFMDRGSDGKLQEVGQVSVSLQRASGDFQTTKLNGFEVFARFGSAIAPLGDLDQDGFNDIAIAAPYGGEDKKGIVYIFNGRSTGLNAVPSQILEGQWAARSGCPPSFGYSMKGATDIDKNGYPDLIVGAFGVDRAILYRARPVITVNAGLEVYPSILNQDNKTCSLPGTALKVSCFNVRFCLKADGKGVLPRKLNFQVELLLDKLKQKGAIRRALFLYSRSPSHSKNMTISRGGLMQCEELIAYLRDESEFRDKLTPITIFMEYRLDYRTAADTTGLQPILNQFTPANISRQAHILLD chain 2: EDNRCASSNAASCARCLALGPECGWCVQEDFISGGSRSERCDIVSNLISKGCSVDSIEYPSVHVIIPTENEINTQVTPGEVSIQLRPGAEANFMLKVHPLKKYPVDLYYLVDVSASMHNNIEKLNSVGNDLSRKMAFFSRDFRLGFGSYVDKTVSPYISIHPERIHNQCSDYNLDCMPPHGYIHVLSLTENITEFEKAVHRQKISGNIDTPEGGFDAMLQAAVCESHIGWRKEAKRLLLVMTDQTSHLALDSKLAGIVCPNDGNCHLKNNVYVKSTTMEHPSLGQLSEKLIDNNINVIFAVQGKQFHWYKDLLPLLPGTIAGEIESKAANLNNLVVEAYQKLISEVKVQVENQVQGIYFNITAICPDGSRKPGMEGCRNVTSNDEVLFNVTVTMKKCDVTGGKNYAIIKPIGFNETAKIHIHRNCSCQCEDNRGPKGKCVDETFLDSKCFQCDENK
2 | – | 0.000142 | integrin αVβ8-6DLL headpiece (the disulfide-linked loop of β8 substituted by that of β6) (complex) chain 1: FNLDVDSPAEYSGPEGSYFGFAVDFFVPSASSRMFLLVGAPKANTTQPGIVEGGQVLKCDWSSTRRCQPIEFDATGNRDYAKDDPLEFKSHQWFGASVRSKQDKILACAPLYHWRTEMKQEREPVGTCFLQDGTKTVEYAPCRSQDIDADGQGFCQGGFSIDFTKADRVLLGGPGSFYWQGQLISDQVAEIVSKYDPNVYSIKYNNQLATRTAQAIFDDSYLGYSVAVGDFNGDGIDDFVSGVPRAARTLGMVYIYDGKNMSSLYNFTGEQMAAYFGFSVAATDINGDDYADVFIGAPLFMDRGSDGKLQEVGQVSVSLQRASGDFQTTKLNGFEVFARFGSAIAPLGDLDQDGFNDIAIAAPYGGEDKKGIVYIFNGRSTGLNAVPSQILEGQWAARSGCPPSFGYSMKGATDIDKNGYPDLIVGAFGVDRAILYRARPVITVNAGLEVYPSILNQDNKTCSLPGTALKVSCFNVRFCLKADGKGVLPRKLNFQVELLLDKLKQKGAIRRALFLYSRSPSHSKNMTISRGGLMQCEELIAYLRDESEFRDKLTPITIFMEYRLDYRTAADTTGLQPILNQFTPANISRQAHILL chain 2: EDNRCASSNAASCARCLALGPECGWCVQEDFISGGSRSERCDIVSNLISKGCSVDSIEYPSVHVIIPTENEINTQVTPGEVSIQLRPGAEANFMLKVHPLKKYPVDLYYLVDVSASMHNNIEKLNSVGNDLSRKMAFFSRDFRLGFGSYVDKTVSPYISIHPERIHNQCSSIPYFCMPPHGYIHVLSLTENITEFEKAVHRQKISGNIDTPEGGFDAMLQAAVCESHIGWRKEAKRLLLVMTDQTSHLALDSKLAGIVCPNDGNCHLKNNVYVKSTTMEHPSLGQLSEKLIDNNINVIFAVQGKQFHWYKDLLPLLPGTIAGEIESKAANLNNLVVEAYQKLISEVKVQVENQVQGIYFNITAICPDGSRKPGMEGCRNVTSNDEVLFNVTVTMKKCDVTGGKNYAIIKPIGFNETAKIHIHRNCSCQCEDNRGPKGKCVDETFLDSKCFQCDENK
3 | 7.6e-05 | – | αVβ8-IgG1 Fc (heterotetramer of αVβ8 linked by the IgG1 Fc fragment on the C-terminus of β8) (Fc fusion) chain 1: FNLDVDSPAEYSGPEGSYFGFAVDFFVPSASSRMFLLVGAPKANTTQPGIVEGGQVLKCDWSSTRRCQPIEFDATGNRDYAKDDPLEFKSHQWFGASVRSKQDKILACAPLYHWRTEMKQEREPVGTCFLQDGTKTVEYAPCRSQDIDADGQGFCQGGFSIDFTKADRVLLGGPGSFYWQGQLISDQVAEIVSKYDPNVYSIKYNNQLATRTAQAIFDDSYLGYSVAVGDFNGDGIDDFVSGVPRAARTLGMVYIYDGKNMSSLYNFTGEQMAAYFGFSVAATDINGDDYADVFIGAPLFMDRGSDGKLQEVGQVSVSLQRASGDFQTTKLNGFEVFARFGSAIAPLGDLDQDGFNDIAIAAPYGGEDKKGIVYIFNGRSTGLNAVPSQILEGQWAARSGCPPSFGYSMKGATDIDKNGYPDLIVGAFGVDRAILYRARPVITVNAGLEVYPSILNQDNKTCSLPGTALKVSCFNVRFCLKADGKGVLPRKLNFQVELLLDKLKQKGAIRRALFLYSRSPSHSKNMTISRGGLMQCEELIAYLRDESEFRDKLTPITIFMEYRLDYRTAADTTGLQPILNQFTPANISRQAHILL chain 2: EDNRCASSNAASCARCLALGPECGWCVQEDFISGGSRSERCDIVSNLISKGCSVDSIEYPSVHVIIPTENEINTQVTPGEVSIQLRPGAEANFMLKVHPLKKYPVDLYYLVDVSASMHNNIEKLNSVGNDLSRKMAFFSRDFRLGFGSYVDKTVSPYISIHPERIHNQCSDYNLDCMPPHGYIHVLSLTENITEFEKAVHRQKISGNIDTPEGGFDAMLQAAVCESHIGWRKEAKRLLLVMTDQTSHLALDSKLAGIVCPNDGNCHLKNNVYVKSTTMEHPSLGQLSEKLIDNNINVIFAVQGKQFHWYKDLLPLLPGTIAGEIESKAANLNNLVVEAYQKLISEVKVQVENQVQGIYFNITAICPDGSRKPGMEGCRNVTSNDEVLFNVTVTMKKCDVTGGKNYAIIKPIGFNETAKIHIHRNCSCQCEDNRGPKGKCVDETFLDSKCFQCDENK
4 | – | 0.00121 | integrin αVβ6-8DLL headpiece (the disulfide-linked loop of β6 substituted by that of β8) (complex) chain 1: FNLDVDSPAEYSGPEGSYFGFAVDFFVPSASSRMFLLVGAPKANTTQPGIVEGGQVLKCDWSSTRRCQPIEFDATGNRDYAKDDPLEFKSHQWFGASVRSKQDKILACAPLYHWRTEMKQEREPVGTCFLQDGTKTVEYAPCRSQDIDADGQGFCQGGFSIDFTKADRVLLGGPGSFYWQGQLISDQVAEIVSKYDPNVYSIKYNNQLATRTAQAIFDDSYLGYSVAVGDFNGDGIDDFVSGVPRAARTLGMVYIYDGKNMSSLYNFTGEQMAAYFGFSVAATDINGDDYADVFIGAPLFMDRGSDGKLQEVGQVSVSLQRASGDFQTTKLNGFEVFARFGSAIAPLGDLDQDGFNDIAIAAPYGGEDKKGIVYIFNGRSTGLNAVPSQILEGQWAARSGCPPSFGYSMKGATDIDKNGYPDLIVGAFGVDRAILYRARPVITVNAGLEVYPSILNQDNKTCSLPGTALKVSCFNVRFCLKADGKGVLPRKLNFQVELLLDKLKQKGAIRRALFLYSRSPSHSKNMTISRGGLMQCEELIAYLRDESEFRDKLTPITIFMEYRLDYRTAADTTGLQPILNQFTPANISRQAHILLD chain 2: HVQGGCALGGAETCEDCLLIGPQCAWCAQENFTHPSGVGERCDTPANLLAKGCQLNFIENPVSQVEILKNKPLSVGRQKNSSDIVQIAPQSLILKLRPGGAQTLQVHVRQTEDYPVDLYYLMDLSASMDDDLNTIKELGSRLSKEMSKLTSNFRLGFGSFVEKPVSPFVKTTPEEIANPCSDYNLDCLPTFGFKHILPLTNDAERFNEIVKNQKISANIDTPEGGFDAIMQAAVCKEKIGWRNDSLHLLVFVSDADSHFGMDSKLAGIVCPNDGLCHLDSKNEYSMSTVLEYPTIGQLIDKLVQNNVLLIFAVTQEQVHLYENYAKLIPGATVGLLQKDSGNILQLIISAYEELRSEVELEVLGDTEGLNLSFTAICNNGTLFQHQKKCSHMKVGDTASFSVTVNIPHCERRSRHIIIKPVGLGDALELLVSPECNCDCQKEVEVNSSKCHHGNGSFQCGVCACHPGHMGPRCE
5 | – | 0.000107 | integrin αVβ6 headpiece (αV residues 1-594, β6 residues 1-474) (complex) chain 1: FNLDVDSPAEYSGPEGSYFGFAVDFFVPSASSRMFLLVGAPKANTTQPGIVEGGQVLKCDWSSTRRCQPIEFDATGNRDYAKDDPLEFKSHQWFGASVRSKQDKILACAPLYHWRTEMKQEREPVGTCFLQDGTKTVEYAPCRSQDIDADGQGFCQGGFSIDFTKADRVLLGGPGSFYWQGQLISDQVAEIVSKYDPNVYSIKYNNQLATRTAQAIFDDSYLGYSVAVGDFNGDGIDDFVSGVPRAARTLGMVYIYDGKNMSSLYNFTGEQMAAYFGFSVAATDINGDDYADVFIGAPLFMDRGSDGKLQEVGQVSVSLQRASGDFQTTKLNGFEVFARFGSAIAPLGDLDQDGFNDIAIAAPYGGEDKKGIVYIFNGRSTGLNAVPSQILEGQWAARSGCPPSFGYSMKGATDIDKNGYPDLIVGAFGVDRAILYRARPVITVNAGLEVYPSILNQDNKTCSLPGTALKVSCFNVRFCLKADGKGVLPRKLNFQVELLLDKLKQKGAIRRALFLYSRSPSHSKNMTISRGGLMQCEELIAYLRDESEFRDKLTPITIFMEYRLDYRTAADTTGLQPILNQFTPANISRQAHILLD chain 2: HVQGGCALGGAETCEDCLLIGPQCAWCAQENFTHPSGVGERCDTPANLLAKGCQLNFIENPVSQVEILKNKPLSVGRQKNSSDIVQIAPQSLILKLRPGGAQTLQVHVRQTEDYPVDLYYLMDLSASMDDDLNTIKELGSRLSKEMSKLTSNFRLGFGSFVEKPVSPFVKTTPEEIANPCSSIPYFCLPTFGFKHILPLTNDAERFNEIVKNQKISANIDTPEGGFDAIMQAAVCKEKIGWRNDSLHLLVFVSDADSHFGMDSKLAGIVCPNDGLCHLDSKNEYSMSTVLEYPTIGQLIDKLVQNNVLLIFAVTQEQVHLYENYAKLIPGATVGLLQKDSGNILQLIISAYEELRSEVELEVLGDTEGLNLSFTAICNNGTLFQHQKKCSHMKVGDTASFSVTVNIPHCERRSRHIIIKPVGLGDALELLVSPECNCDCQKEVEVNSSKCHHGNGSFQCGVCACHPGHMGPRCE
